Data set [1] deals with the molecule itself. Kind of data set: cryo-EM structure; co-purified LlCsm (Csm1 D14N, Csm3 D30A)-crRNA incubated with NTR at 1:2, 37 °C, 60 min, then SEC; 3.4 Å.
Data set [2] deals with the molecule itself. Briefly: cryo-EM structure; co-purified LlCsm (Csm1 D14N, Csm3 D30A)-crRNA incubated with CTR at 1:2, 37 °C, 60 min, then SEC; no ATP; two classes, CTR-43 (3.0 Å) and CTR-32 (3.3 Å).

Data on two proteins can be found in PMC8964682, “Structural and biochemical characterization of in vivo assembled Lactococcus lactis CRISPR-Csm complex” (Communications Biology, 2022).

B1: Lactococcus lactis Csm3 Asp30Ala, subunit of the LlCsm (D14N)1(D30A)3 complex (natural protein)
chain: MKLVIEGTIVLKTGMHIGGSSDFSAIGAVASPVVRDTLTRLPLIPGSSLKGKMRYLLAKELNNGILLNEPNNDQDEILRLFGSSEKDKIRRARLKFNDIKLSNLAELETFNVSSTEVKFENTINRKTAVANPRQIERVIAGSKFDFEIFYNLDDIKEVEKDFENIKQGFDLLEFDYLGGHGTRGSGRIAFENLSVITAVGNFEKINTLNEILGA
notes: Csm3 of the plasmid-encoded (pKLM) Type III-A CRISPR-Cas system of Lactococcus lactis, with the RNase-site mutation D30A; Csm3.1 is the Csm3 copy closest to Csm4; There are four copies in CTR-43, NTR and apo, and three in CTR-32; also called Csm3.1; Csm3.2
With B1, the stoichiometry N – broadly, the number of molecules, sites or subunits per partner or assembly – in data set [1] came out at 4; in data set [2], 3.

B2: Lactococcus lactis Csm2 with N-terminal His6-tag, subunit of the LlCsm complex (natural protein)
chain: TELKIGNEKVNSTNFGDFAEKAIRGINHKPFVNSKGGEQKITTSKIRGILELVNKVYNRVINTNDVELSENILADIAYIKVKIAYESGREPVVKDFIQRTAFTAAITDVMNQRTRESFLLFARYVESLIAYFKFYGGKD
notes: Csm2 of the plasmid-encoded (pKLM) Type III-A CRISPR-Cas system of Lactococcus lactis; The csm2 gene encoded the His6-tag in all variants of LlCsm (wild type and Csm1 D14N / Csm3 D30A); Removal of the tag is not mentioned; also called LlCsm2; not shown: His6, N-terminal, kept
In the case of B2, the “stoichiometry N” value turned out to be 3 in data set [1] and 2 in data set [2].
